Results: publication PMC8353492

Legend:
[1] = target: NOX2 phox complex (rhodamine-tagged cytochrome b558 (gp91 plus p22), p40, p47 and p67), cell-free system (UniProt P04839); experiment: rhodamine fluorescence intensity over time; initially inactive (GDP-bound) Rac added to the cell-free NOX2 phox complex with rhodamine-tagged cytochrome b558 after a fraction of preactivated wt Rac (∼2 mol %); SDS 100 μM; assay buffer with NADPH and GTP, pH 7.4; also with H2O2 (unaffected) or ascorbic acid 10 mM (enhanced)
[2] = target: NOX2 phox complex (rhodamine-tagged cytochrome b558 (gp91 plus p22), p40, p47 and p67), cell-free system (UniProt P04839); experiment: rhodamine fluorescence intensity over time; fully preactivated (GTP-bound) Rac added to the cell-free NOX2 phox complex with rhodamine-tagged cytochrome b558 (subunits 100 nM), SDS 100 μM; 10 mM MgCl2, 50 mM KCl, 1 mM NaCl, 0.2 mM NADPH, 10 mM GTP, 10 mM Mops pH 7.4

| fold slower rate of binding than wt Rac [1] [fold] | fold slower binding than wt Rac [2] [fold] | Substance |
| --- | --- | --- |
| 1.5 | 1.5 | K132E Rac (from UniProt P63000 1-192) (natural protein) |
| 1.5 | 1.5 | L134R Rac (from UniProt P63000 1-192) (natural protein) |
